The source of these data is paper PMC3084833.

Experiment [1] addresses ΔCT-PxxP bestrophin-1 (human bestrophin-1 lacking the C-terminal proline-rich region between 462 and 575) (human) (UniProt O76090). Kind of experiment: co-IP; HEK-293 cells co-transfected with wild-type or ΔCTPxxP bestrophin-1 and β3- or His-tagged β4-subunits; IP with anti-bestrophin-1 antibody, blot anti-β3, or IP with anti-His antibody, blot anti-bestrophin-1; relative co-precipitation efficiency by densitometry of lysate, precipitate and non-bound fraction.

For experiment [2], the target named is calcium channel, voltage-dependent, β4-subunit, His6-tagged (rat, β4-pCDNA3) (Rattus norvegicus) (UniProt D4A055). The experiment is described as above.

Take “calcium channel, voltage-dependent, β3-subunit (rat, untagged, β3-pCMV) (from UniProt P54287 1-484) (natural protein)”: the co-precipitation efficiency in experiment [1] worked out at 4%.

Turning to “ΔCT-PxxP bestrophin-1 (human bestrophin-1 lacking the C-terminal proline-rich region between 462 and 575) (from UniProt O76090-1 1-585) (natural protein)”, in experiment [2], the co-precipitation efficiency was 4%.
